Measured values as given in publication PMC2908218.

Target: conventional myosin (Caenorhabditis elegans) (UniProt P02566)
Test: ELISA

Chain of UniProt P02566 (P02566 whole entry): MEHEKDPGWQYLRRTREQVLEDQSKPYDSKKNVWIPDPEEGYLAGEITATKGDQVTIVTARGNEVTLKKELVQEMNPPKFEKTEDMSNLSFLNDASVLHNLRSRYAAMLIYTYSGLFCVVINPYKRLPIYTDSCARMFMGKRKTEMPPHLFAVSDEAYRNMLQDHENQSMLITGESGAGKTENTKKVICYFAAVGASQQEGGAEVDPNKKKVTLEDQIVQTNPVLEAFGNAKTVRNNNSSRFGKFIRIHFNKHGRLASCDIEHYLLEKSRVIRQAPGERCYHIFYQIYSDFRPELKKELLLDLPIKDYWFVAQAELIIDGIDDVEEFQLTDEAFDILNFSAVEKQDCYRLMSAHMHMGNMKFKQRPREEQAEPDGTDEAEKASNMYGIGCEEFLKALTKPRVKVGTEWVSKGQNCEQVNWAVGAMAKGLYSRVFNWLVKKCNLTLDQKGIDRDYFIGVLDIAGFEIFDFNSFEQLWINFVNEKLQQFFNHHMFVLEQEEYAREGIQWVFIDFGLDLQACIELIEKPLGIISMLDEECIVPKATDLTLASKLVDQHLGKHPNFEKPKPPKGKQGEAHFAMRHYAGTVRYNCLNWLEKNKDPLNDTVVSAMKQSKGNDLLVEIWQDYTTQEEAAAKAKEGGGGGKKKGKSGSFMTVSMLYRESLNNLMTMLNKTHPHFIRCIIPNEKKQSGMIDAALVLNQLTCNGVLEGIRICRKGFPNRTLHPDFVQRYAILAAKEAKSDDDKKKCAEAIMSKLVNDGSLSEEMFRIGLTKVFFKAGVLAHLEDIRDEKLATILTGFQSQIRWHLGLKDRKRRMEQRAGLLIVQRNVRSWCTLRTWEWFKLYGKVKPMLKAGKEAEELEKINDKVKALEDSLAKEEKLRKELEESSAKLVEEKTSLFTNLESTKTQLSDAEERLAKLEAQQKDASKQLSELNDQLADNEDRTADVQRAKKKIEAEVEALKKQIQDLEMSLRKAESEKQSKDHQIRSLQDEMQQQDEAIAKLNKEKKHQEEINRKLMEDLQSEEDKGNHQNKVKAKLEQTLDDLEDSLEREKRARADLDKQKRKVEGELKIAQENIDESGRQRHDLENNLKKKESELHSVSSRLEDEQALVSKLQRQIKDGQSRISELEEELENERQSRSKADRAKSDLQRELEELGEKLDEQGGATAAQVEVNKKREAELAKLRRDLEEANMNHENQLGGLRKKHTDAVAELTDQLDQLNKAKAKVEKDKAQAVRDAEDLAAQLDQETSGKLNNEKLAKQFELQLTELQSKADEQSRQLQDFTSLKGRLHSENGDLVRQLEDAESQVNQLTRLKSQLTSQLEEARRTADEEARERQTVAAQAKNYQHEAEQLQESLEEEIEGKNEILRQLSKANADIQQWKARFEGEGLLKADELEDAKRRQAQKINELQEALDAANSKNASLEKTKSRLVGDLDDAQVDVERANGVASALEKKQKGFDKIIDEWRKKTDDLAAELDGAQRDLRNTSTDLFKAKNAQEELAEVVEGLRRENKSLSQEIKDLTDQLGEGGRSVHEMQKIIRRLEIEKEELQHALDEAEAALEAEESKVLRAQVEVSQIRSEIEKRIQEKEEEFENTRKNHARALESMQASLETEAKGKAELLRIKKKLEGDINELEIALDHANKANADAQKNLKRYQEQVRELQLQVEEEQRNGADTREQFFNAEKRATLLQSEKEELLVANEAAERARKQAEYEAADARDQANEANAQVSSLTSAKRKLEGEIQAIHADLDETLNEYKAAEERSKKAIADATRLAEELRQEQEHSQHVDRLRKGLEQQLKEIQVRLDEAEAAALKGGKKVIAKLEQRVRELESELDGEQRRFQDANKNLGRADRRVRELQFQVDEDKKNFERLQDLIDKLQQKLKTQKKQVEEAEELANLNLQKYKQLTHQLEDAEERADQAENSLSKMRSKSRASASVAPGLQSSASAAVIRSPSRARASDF

## TTN-1 fragment 11/12 Ig38-Ig39-Ig40 (from UniProt G4SLH0)
  Kd: 1.5 nM
